According to publication PMC7213981, “Enhancer architecture sensitizes cell specific responses to Notch gene dose via a bind and discard mechanism”:

How the values were obtained:
[1] = target: T1, RBPJ (CSL);N1ICD;MAML1 (mouse;mouse;human, UniProt P31266;Q01705;Q92585 53-474;1744-2113;1-280, ||); assay: EMSA; both probes in the same reaction; 1 uM NICD/MAML; cooperative, both sites preferentially filled; Native PAGE EMSA, LICOR Odyssey CLx imaging; equal amounts of both probes in one reaction; buffer, salt, pH and temperature not stated (as in Uhl 2010, 2016); conditions: protein: recombinant;recombinant;recombinant; copies: 1;1;1; label: 5' IRDye-800 on the complementary strand (primer S25)
[2] = target: T2, Su(H);NICD;Mastermind (Mam) (Drosophila melanogaster;Drosophila …, UniProt P28159;P07207;P21519 98-523;1763-2412;87-307, ||); assay: EMSA; both probes in the same reaction; 1 uM NICD/Mam; cooperative, less 2NCM complex than the mouse proteins; Native PAGE EMSA, LICOR Odyssey CLx imaging; equal amounts of both probes in one reaction; buffer, salt, pH and temperature not stated (as in Uhl 2010, 2016); conditions: protein: recombinant;recombinant;recombinant; copies: 1;1;1; label: 5' IRDye-800 on the complementary strand (primer S25)
[3] = target: T3, RBPJ (CSL) (mouse, UniProt P31266 53-474); assay: EMSA; both probes in the same reaction; RBPJ 10-320 nM, no co-activators; additive, slightly lower affinity than 2xCSL; Native PAGE EMSA, LICOR Odyssey CLx imaging; equal amounts of both probes in one reaction; buffer, salt, pH and temperature not stated (as in Uhl 2010, 2016); conditions: protein: recombinant; label: 5' IRDye-800 on the complementary strand (primer S25)
[4] = target: T4, Su(H) (Drosophila melanogaster, UniProt P28159 98-523); assay: EMSA; both probes in the same reaction; Su(H) 10-320 nM, no co-activators; additive, slightly lower affinity than 2xCSL; Native PAGE EMSA, LICOR Odyssey CLx imaging; equal amounts of both probes in one reaction; buffer, salt, pH and temperature not stated (as in Uhl 2010, 2016); conditions: protein: recombinant; label: 5' IRDye-800 on the complementary strand (primer S25)
[5] = target: T2, Su(H);NICD;Mastermind (Mam); assay: EMSA; both probes in the same reaction; 1 uM NICD/Mam; additive, not cooperative, less preferred than 1xSPS; Native PAGE EMSA, LICOR Odyssey CLx imaging; equal amounts of both probes in one reaction; buffer, salt, pH and temperature not stated (as in Uhl 2010, 2016); conditions: protein: recombinant;recombinant;recombinant; copies: 1;1;1; label: 5' IRDye-700 on the complementary strand (primer S25)
[6] = target: T1, RBPJ (CSL);N1ICD;MAML1; assay: EMSA; both probes in the same reaction; 1 uM NICD/MAML; additive, not cooperative, less preferred than 1xSPS; Native PAGE EMSA, LICOR Odyssey CLx imaging; equal amounts of both probes in one reaction; buffer, salt, pH and temperature not stated (as in Uhl 2010, 2016); conditions: protein: recombinant;recombinant;recombinant; copies: 1;1;1; label: 5' IRDye-700 on the complementary strand (primer S25)
[7] = target: T3, RBPJ (CSL); assay: EMSA; both probes in the same reaction; RBPJ 10-320 nM, no co-activators; additive, slightly higher affinity than 1xSPS; Native PAGE EMSA, LICOR Odyssey CLx imaging; equal amounts of both probes in one reaction; buffer, salt, pH and temperature not stated (as in Uhl 2010, 2016); conditions: protein: recombinant; label: 5' IRDye-700 on the complementary strand (primer S25)
[8] = target: T4, Su(H); assay: EMSA; both probes in the same reaction; Su(H) 10-320 nM, no co-activators; additive, slightly higher affinity than 1xSPS; Native PAGE EMSA, LICOR Odyssey CLx imaging; equal amounts of both probes in one reaction; buffer, salt, pH and temperature not stated (as in Uhl 2010, 2016); conditions: protein: recombinant; label: 5' IRDye-700 on the complementary strand (primer S25)

Measured: binding result

T3 sequence (P31266 53-474): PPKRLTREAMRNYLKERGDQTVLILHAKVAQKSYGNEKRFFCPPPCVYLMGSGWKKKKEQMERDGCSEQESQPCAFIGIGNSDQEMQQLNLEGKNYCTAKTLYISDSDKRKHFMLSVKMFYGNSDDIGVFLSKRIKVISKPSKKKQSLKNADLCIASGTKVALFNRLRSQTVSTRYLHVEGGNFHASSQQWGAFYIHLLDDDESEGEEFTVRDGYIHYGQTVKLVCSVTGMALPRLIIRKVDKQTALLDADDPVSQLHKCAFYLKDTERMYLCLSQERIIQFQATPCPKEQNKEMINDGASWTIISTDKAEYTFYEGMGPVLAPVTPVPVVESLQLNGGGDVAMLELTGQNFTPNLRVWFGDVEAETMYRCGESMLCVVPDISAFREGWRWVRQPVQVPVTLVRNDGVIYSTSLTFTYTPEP
T1 sequence (P31266 53-474, chain 1 of 3): as the sequence (P31266 53-474) above
T1 sequence (Q01705 1744-2113, chain 2 of 3): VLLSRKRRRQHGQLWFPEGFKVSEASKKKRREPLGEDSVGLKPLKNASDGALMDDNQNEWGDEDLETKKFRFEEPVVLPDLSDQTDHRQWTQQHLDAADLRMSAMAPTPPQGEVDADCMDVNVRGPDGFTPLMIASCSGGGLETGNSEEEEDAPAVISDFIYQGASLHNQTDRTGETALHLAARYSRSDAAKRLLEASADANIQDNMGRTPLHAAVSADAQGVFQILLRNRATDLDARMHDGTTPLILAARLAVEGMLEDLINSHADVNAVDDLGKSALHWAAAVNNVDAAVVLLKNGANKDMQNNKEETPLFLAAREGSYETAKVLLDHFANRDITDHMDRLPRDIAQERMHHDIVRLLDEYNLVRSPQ
T1 sequence (Q92585 1-280, chain 3 of 3): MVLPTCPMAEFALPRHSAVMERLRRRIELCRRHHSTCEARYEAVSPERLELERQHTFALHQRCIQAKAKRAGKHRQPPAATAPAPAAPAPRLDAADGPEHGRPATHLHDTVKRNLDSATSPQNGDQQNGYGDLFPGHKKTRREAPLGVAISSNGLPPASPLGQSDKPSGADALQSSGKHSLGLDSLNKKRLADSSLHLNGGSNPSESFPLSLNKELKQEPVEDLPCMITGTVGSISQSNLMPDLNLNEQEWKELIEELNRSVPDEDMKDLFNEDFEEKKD
T2 sequence (P28159 98-523, chain 1 of 3): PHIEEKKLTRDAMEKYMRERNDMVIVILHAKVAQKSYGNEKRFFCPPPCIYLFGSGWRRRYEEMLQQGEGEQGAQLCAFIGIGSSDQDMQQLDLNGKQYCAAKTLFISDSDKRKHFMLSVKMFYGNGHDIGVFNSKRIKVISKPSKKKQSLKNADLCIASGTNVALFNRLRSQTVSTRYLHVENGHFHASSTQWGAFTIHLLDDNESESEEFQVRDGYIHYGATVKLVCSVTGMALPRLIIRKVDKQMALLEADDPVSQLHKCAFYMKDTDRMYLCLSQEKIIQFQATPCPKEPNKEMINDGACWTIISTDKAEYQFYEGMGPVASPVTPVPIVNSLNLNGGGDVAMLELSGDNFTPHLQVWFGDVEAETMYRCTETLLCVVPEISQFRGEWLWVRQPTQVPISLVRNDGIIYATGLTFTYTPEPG
T2 sequence (P07207 1763-2412, chain 2 of 3): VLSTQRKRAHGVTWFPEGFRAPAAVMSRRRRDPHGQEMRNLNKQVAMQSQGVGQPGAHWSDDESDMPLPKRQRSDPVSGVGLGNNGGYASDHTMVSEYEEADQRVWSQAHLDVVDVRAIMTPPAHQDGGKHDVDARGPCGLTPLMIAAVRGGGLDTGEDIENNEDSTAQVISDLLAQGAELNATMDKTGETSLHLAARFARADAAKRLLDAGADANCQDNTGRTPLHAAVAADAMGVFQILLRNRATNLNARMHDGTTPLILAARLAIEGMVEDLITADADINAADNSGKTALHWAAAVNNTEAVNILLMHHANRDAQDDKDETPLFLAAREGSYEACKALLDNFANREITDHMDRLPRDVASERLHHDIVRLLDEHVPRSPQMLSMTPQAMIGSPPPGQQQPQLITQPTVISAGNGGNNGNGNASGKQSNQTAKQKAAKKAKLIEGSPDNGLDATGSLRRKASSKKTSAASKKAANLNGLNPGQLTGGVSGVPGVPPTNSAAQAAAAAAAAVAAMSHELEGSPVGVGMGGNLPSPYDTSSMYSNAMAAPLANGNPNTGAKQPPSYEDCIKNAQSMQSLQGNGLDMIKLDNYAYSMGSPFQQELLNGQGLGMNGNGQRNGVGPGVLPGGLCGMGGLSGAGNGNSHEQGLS
T2 sequence (P21519 87-307, chain 3 of 3): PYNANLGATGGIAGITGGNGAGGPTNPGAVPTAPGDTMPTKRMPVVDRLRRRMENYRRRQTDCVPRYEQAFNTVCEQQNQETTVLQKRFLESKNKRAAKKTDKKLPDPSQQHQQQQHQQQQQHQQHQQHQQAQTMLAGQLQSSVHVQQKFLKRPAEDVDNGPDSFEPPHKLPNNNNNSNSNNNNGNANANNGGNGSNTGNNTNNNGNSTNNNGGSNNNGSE
T4 sequence (P28159 98-523): as the sequence (P28159 98-523, chain 1 of 3) above

B1: 1xSPS EMSA probe (dsDNA)
DNA 1: GCTACGTGGGAAAGGAGCAAACTGCGTTTCCCACGTTCGTAGTGCGGGCGTGGCT
DNA 2: AGCCACGCCCGCACTACGAACGTGGGAAACGCAGTTTGCTCCTTTCCCACGTAGC
binds: [1] | [2] | [3] | [4]

B2: 2xCSL EMSA probe (dsDNA)
DNA 1: CGAACGTGGGAAACCTAGGCTAGAGGCACCGTGGGAAACTAGTGCGGGCGTGGCT
DNA 2: AGCCACGCCCGCACTAGTTTCCCACGGTGCCTCTAGCCTAGGTTTCCCACGTTCG
binds: [5] | [6] | [7] | [8]
